T1: human La (hLa) (human, UniProt P05455 1-408)
T1 sequence: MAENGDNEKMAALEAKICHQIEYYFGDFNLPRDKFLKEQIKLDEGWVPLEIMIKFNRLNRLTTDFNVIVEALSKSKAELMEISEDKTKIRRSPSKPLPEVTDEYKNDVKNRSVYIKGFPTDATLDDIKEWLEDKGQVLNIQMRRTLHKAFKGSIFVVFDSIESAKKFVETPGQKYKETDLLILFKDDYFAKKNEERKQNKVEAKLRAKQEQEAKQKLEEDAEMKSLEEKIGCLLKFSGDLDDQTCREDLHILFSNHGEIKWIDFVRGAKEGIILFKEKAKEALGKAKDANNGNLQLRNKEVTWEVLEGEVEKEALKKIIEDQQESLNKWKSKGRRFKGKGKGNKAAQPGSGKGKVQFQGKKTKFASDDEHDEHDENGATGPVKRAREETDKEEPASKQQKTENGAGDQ

T2: hLa K86A/T87A/K88A (human, UniProt P05455 1-408, K86A;T87A;K88A)
T2 sequence: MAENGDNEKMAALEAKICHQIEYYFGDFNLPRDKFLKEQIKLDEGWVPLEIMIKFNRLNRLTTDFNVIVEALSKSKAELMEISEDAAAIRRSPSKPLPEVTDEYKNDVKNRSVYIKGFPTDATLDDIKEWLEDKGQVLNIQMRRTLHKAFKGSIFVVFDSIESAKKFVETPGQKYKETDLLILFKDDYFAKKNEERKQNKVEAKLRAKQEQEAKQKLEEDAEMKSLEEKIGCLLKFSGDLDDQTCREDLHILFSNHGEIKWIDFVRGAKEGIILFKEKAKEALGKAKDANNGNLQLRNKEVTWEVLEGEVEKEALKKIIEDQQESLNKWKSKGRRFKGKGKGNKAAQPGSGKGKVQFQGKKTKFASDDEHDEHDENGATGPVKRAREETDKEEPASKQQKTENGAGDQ

T3: hLa R32A/K34A/K37A (human, UniProt P05455 1-408, R32A;K34A;K37A)
T3 sequence: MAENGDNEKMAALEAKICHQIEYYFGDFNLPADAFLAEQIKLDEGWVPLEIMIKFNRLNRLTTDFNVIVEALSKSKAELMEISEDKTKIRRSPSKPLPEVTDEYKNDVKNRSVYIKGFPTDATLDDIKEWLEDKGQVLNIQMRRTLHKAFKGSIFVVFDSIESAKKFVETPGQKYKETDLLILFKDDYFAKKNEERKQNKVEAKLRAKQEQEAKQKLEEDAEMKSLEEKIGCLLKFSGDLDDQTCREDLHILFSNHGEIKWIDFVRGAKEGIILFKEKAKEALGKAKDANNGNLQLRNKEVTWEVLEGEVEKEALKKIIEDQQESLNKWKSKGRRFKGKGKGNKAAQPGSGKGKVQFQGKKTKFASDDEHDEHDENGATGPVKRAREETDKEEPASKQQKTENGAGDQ


Experiments:
human La (hLa) = molecular target: T1, human La (hLa); test: competition
hLa K86A/T87A/K88A = molecular target: T2, hLa K86A/T87A/K88A; test: EMSA
hLa R32A/K34A/K37A = molecular target: T3, hLa R32A/K34A/K37A; test: EMSA

Row | Binder | binding result (human La (hLa)) | binding result (hLa K86A/T87A/K88A) | binding result (hLa R32A/K34A/K37A)
1 | UUUUUUUUUUUUUUUUUUUU (ssRNA) [U20] | binds |  | 
2 | UUUUUUUUUU (ssRNA) [U10] |  | binds | binds
3 | AAAAAAAAAAAAAAAAAAAA (ssRNA) [A20] |  |  | binds

— PMC5934636
